Results from US20080305041A1, “Pf4 Pharmacophores and Their Uses” (BIOQUANTA CORP., priority 2004, published 2008).
Changes are numbered by the printed parent chain. Numbers in names are those of the source. Values belong to the molecule of their own block, whether it stands above or below them.

Key:
PF4 receptor [1] = experiment: PF4 receptor activation by PF4-derived peptides
PF4 receptor [2] = experiment: PF4 receptor binding / competition of PF4-derived peptides
HUVEC [3] = experiment: Angiogenic activity of mutant PF4 polypeptides in HUVEC cells; format: cell-based, Human; conditions: for antiangiogenic properties/activity of PF4 (effect of the mutation): Table 4 column Function
Description: (§1) Inhibition of DNA synthesis was measured by [^3H]-thymidine incorporation assay. Cells were plated at 15,000 cells per well in a 24 well-plate in 0.5 ml medium containing 2.5% FCS and allowed to attach for 4 hours at 37° C. Proliferation was then induced by addition of 10 ng/ml of FGF-2, VEGF165 or VEGF121. Increasing concentrations of purified recombinant PF4 proteins were added to some wells and HUVEC were further incubated for 48 hours. [^3H]-thymidine (1 μCi/well) was added during the last 20 hours of incubation. Cells were washed twice with PBS and treated with ice-cold 10% (w/v) trichloroacetic acid for 30 minutes. The resulting precipitates were solubilized with 1 M NaOH and incorporated radioactivity was measured in a Beckman LS-6500 multi-purpose scintillation counter.
HUVEC migration was evaluated in a modified Boyden chamber assay. Transwell cell culture chamber inserts with porous polycarbonate filters ([…]) were coated with 0.2% gelatin. HUVEC suspended in medium supplemented with 2.5% FCS were added to the inserts at 4×10^4 cells per well. The inserts were placed over chambers containing a chemotactic stimulus (10 ng/ml VEGF165), and cells were allowed to migrate for 4 hours at 37° C. in a CO2 incubator. For inhibition experiments, recombinant PF4 proteins were added to both the lower and upper chambers. After incubation, filters were rinsed with PBS, fixed with 1% paraformaldehyde and stained with hematoxyline of Harris (EMD Chemicals Inc. Gibbstown, N.J.).
(§2) The upper surfaces of the filters was scraped with a cotton swab to remove the nonmigrant cells. The […] in a optical microscope at high powered (×200) magnification, and the number of cells within the microscope visualization field was recorded. Each experimental point was performed in triplicate, and 20 visual fields were analyzed per filter.
Next, the PF4 surface was mapped using site-directed mutagenesis. In particular, a series of mutant PF4 polypeptides was generated, and their angiogenic activity in HUVEC cells was investigated using assays such as those described in Section 6.1, above. Table 3 below lists amino acid sequences of the PF4 polypeptides generated, along with each polypeptide designation and sequence identification number (SEQ ID NO.). The first sequence, which is designated WTPF4, corresponds to the wild-type, mature PF4 amino acid sequence that is also depicted in FIG. 1C (SEQ ID NO:1). The other sequences depicted in Table 3 comprise one or more amino acid substitutions, indicated by bold-faced, underlined type in the amino acid sequence.

HUVEC [4] = experiment: HUVEC migration assay (modified Boyden chamber); format: cell-based, Human
Description: (§3) Human umbilical vein endothelial cells (HUVEC) were isolated by collagenase (Roche Diagnostics) digestion as described previously (Jaffe et al., J Clin Invest. 1973; 85(11):2745-56).
(§4) Cells were grown in M199 medium containing 15% fetal calf serum (FCS), 5% human serum, 2 mM glutamine, 50 U/ml penicillin, 50 μg/ml streptomycin, 2.5 μg/ml amphotericin B, and 15 mM HEPES. Cultures were maintained at 37° C. amd 5% CO2 in humidified atmosphere. Every 3-4 days, the cultures were harvested by trypsin treatment, diluted, replated and grown to confluence. HUVEC grown until confluence from the second or third passage are preferably used for experiments described here.
HUVEC migration was evaluated in a modified Boyden chamber assay. Transwell cell culture chamber inserts with porous polycarbonate filters ([…]) were coated with 0.2% gelatin. HUVEC suspended in medium supplemented with 2.5% FCS were added to the inserts at 4×10^4 cells per well. […]
as §2

HUVEC [5] = experiment: Endothelial cell proliferation assay ([3H]-thymidine incorporation); format: cell-based, Human; conditions: stimulus not given
Description: as §3, §4
as §1, with “Cells were washed twice with PBS and treated with ice-cold 10% (w/v) trichloroacetic acid for 30 minutes.” left out

activation of PF4 receptor (PF4 receptor [1]): does not activate
Molecule: P37-56: peptide PTAQLIATLKNGRKISLDLQ (SEQ ID NO:158), P34-56 without capping box [Mutant P37-56]

competition against P34-56 for target binding (PF4 receptor [2]; competitor P34-56): effectively competes | competition with PF4 for binding to the PF4 receptor (PF4 receptor [2]; competitor PF4): effectively competes | activation of PF4 receptor (PF4 receptor [1]): does not activate
Molecule: P34-53: peptide PHSPTAQLIATLKNGRKISL (SEQ ID NO:159), derived from residues 34-53 of mature PF4 [Mutant P34-53]

binding to PF4 receptor (PF4 receptor [2]): does not bind to | activation of PF4 receptor (PF4 receptor [1]): does not bind to or activate
Molecule: P35-53: peptide PSPTAQLIATLKNGRKISL (SEQ ID NO:160), P34-53 with His2 removed [Mutant P35-53]

binding to PF4 receptor (PF4 receptor [2]): bind to | activation of PF4 receptor (PF4 receptor [1]): activate
Molecule: P34-56: peptide PHSPTAQLIATLKNGRKISLDLQ (SEQ ID NO:157), derived from residues 34-56 of mature PF4 [Mutant P34-56]

B1: PF4-M10H: mutant PF4 polypeptide SEQ ID NO:19; single mutant T47A, without HBD (protein, listed as Homo sapiens)
chain: EAEEDGDLQCLCVKTASQVRPRHITSLEVIKAGPHCPTAQLIATLKNGRKICLDLQAPLYQEIIQELLES
antiangiogenic properties/activity of PF4 (effect of the mutation) (HUVEC [3]): Mutation does not suppress

B2: PF4-M2: mutant PF4 polypeptide SEQ ID NO:3; tests importance of Cys residues (protein, listed as Homo sapiens)
chain: B1 chain with C10S, A16T, C36S, Q61K, E62K, Q65K, E66K
antiangiogenic properties/activity of PF4 (effect of the mutation) (HUVEC [3]): Complete loss of activity due

B3: PF4-M13H: mutant PF4 polypeptide SEQ ID NO:25; single mutant V50S, without HBD (protein, listed as Homo sapiens)
chain: B1 chain with A16T, V19S
antiangiogenic properties/activity of PF4 (effect of the mutation) (HUVEC [3]): Mutation does not suppress

B4: PF4-M6: mutant PF4 polypeptide SEQ ID NO:11; triple mutant Q49A, V50S, H54A carrying HBD (protein, listed as Homo sapiens)
chain: B1 chain with A16T, Q18A, V19S, H23A, Q61K, E62K, Q65K, E66K
antiangiogenic properties/activity of PF4 (effect of the mutation) (HUVEC [3]): Mutation decreases the

B5: PF4-M3: mutant PF4 polypeptide SEQ ID NO:5; DLQ motif replaced by IL8-like motif, carrying HBD (protein, listed as Homo sapiens)
chain: B1 chain with Q9R, A16T, Q61K, E62K, Q65K, E66K
effect on HUVEC compared with WTPF4 (HUVEC [3]): sulfate. It has the same effect

B6: PF4-M5H: mutant PF4 polypeptide SEQ ID NO:10; triple mutant L42S, V44Q, T47A, without HBD (protein, listed as Homo sapiens)
chain: B1 chain with L11S, V13Q
antiangiogenic properties/activity of PF4 (effect of the mutation) (HUVEC [3]): Decreases the antiangiogenic

B7: PF4-M2H: mutant PF4 polypeptide SEQ ID NO:4; tests importance of Cys residues (protein, listed as Homo sapiens)
chain: B1 chain with C10S, A16T, C36S
antiangiogenic properties/activity of PF4 (effect of the mutation) (HUVEC [3]): Complete loss of activity due

B8: PF4-M1: mutant PF4 polypeptide SEQ ID NO:2; heparan sulfate binding domain (HBD) absent (protein, listed as Homo sapiens)
chain: B1 chain with A16T
inhibition of cell migration (HUVEC) (HUVEC [4]): PF4-M1 also inhibits cell | antiangiogenic properties/activity of PF4 (effect of the mutation) (HUVEC [3]): PF4-M1 is antiangiogenic

B9: PF4-M5: mutant PF4 polypeptide SEQ ID NO:9; triple mutant L42S, V44Q, T47A carrying HBD (protein, listed as Homo sapiens)
chain: B1 chain with L11S, V13Q, Q61K, E62K, Q65K, E66K
antiangiogenic properties/activity of PF4 (effect of the mutation) (HUVEC [3]): Mutation decreases the

B10: PF4-M3H: mutant PF4 polypeptide SEQ ID NO:6; PF4-M3 mutant without HBD (protein, listed as Homo sapiens)
chain: B1 chain with Q9R, A16T
inhibition of the proliferation of HUVEC cells (HUVEC [5]): This mutant cannot inhibit | inhibition of cell migration (HUVEC) (HUVEC [4]): This mutant cannot inhibit | antiangiogenic properties/activity of PF4 (effect of the mutation) (HUVEC [3]): cancels the antiangiogenic
